Assay: label from the status in PepcDB records
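Also: failed if final PepcDB status was selected cloned or expressed and not failed if soluble or beyond.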

Sequence | protein production
MPHLTKAVHDYRLAAMHRLMDRLRVDALVFGSPDFFQYATNFQLDVWPWERPVFVVVPRNGETFAVMNELSTNHMRFATEKGTVWLSDVTYYAEHPRVANRLALPSQLPEVVAALLAAKGLGMSRIAVDVQHPILTGAQRYLPEMTLRPAMAEMRSLRWVKHAEELQIMRDLAALTDWVQDRYRENIRPGRLVQELDHAMAALMVEEAARRFAGEDFEIMKCWTLTGAASASPHGDGAACGSRIAKGDTIVNLVLPRLNGLYVENERTWFCGQPSDEQARFYSVAARATDAAVAAAVVGRRVCDMDAAAQAVIESAGCGDYVFHRTGHAVGLMLHEYPEDMAFNTRPLLAGEVYSSEPGLYVYGLGGFRLDDTVVVGEVPEVIVKTPKTLSYATVSL | failed
MPHPNRTFKIVIAPDSFKSTATTSQAAAFIAEGIQAAVQSNECEGINVEITTVPMADGGEGTSSCFEGIDITLPTTDANGRLTEATYRFDPQSETAYIDVAAASGLPAVEDELRPLTADTYGTGVLIADAQTRGARR | not failed
MPHQKIYLVGAGIEGWEGFGAKALEVIGKAEVLVGHKRHLDIFSDFTGKKQELGDLSILLEQLRSTDKRTVVLGSGDPNFFGIARFLLRNLPKERIEIFPNVTSVQYAFAQIKEPWDDAIFVSVHGRGLKGAVDRIVAAEKVAVLTDKTNSPAAIARELIARGAEGYEAWLCENLGLPGEKFTRTDVKGLLELPAAELNILILIKAWEPQLAQYPVIGIDDDEFATAKKLITKQEVRAVTLSKLRLQDDLVMWDIGAGSASVSIEASNLMPNGRIFALERNPQYLGFIRDNLKKFVARNVTLVEAFAPEGLDDLPDPDRVFIGGSGGMLEEIIDAVDRRLKSEGVIVLNAVTLDTLTKAVEFLEDHGYMVEVACVNVAKTKGLTEYKMFESHNPVYIITAWKSDE | failed
MPIEIITDSGADLPQSYIREHRIAFLPLVVHWNGQDYKDGITIEPKQVYDAMRQGHTVKTAQPSPLAMKELFLPYAKENRPCLYIAFSSKLSGTYQTAMAVRSELLDEYPEFRLTIIDSKCASLGQGLAVMKAVELAKQNTPYNLLCETIESYCRHMEHIFTVDNLDYLARGGRISKTAAAFGGLLNIKPLLHVEDGALIPLEKWRGRKKVLKRMVELMGERGDDLQKQTIGISHADDEETALELKQMIEETHGCTRFFLSDIGSAIGAHAGPGTIALFFLNKYIEI | not failed
MPIQRREFIAAIGTGALATTAGCAQSGEGSGQTEAETEAESGGGGQPGVAGETLTLTTTTSTYDTGLLDEIHPDFEDMYGVSVDAVAQGTGAALESARNGDSDIVMVHARGLEDDFMRNGYGINRRDLMFNDFVIVGPEDDPAGIQGMGSATEALTTIAESESQFVSRGDNSGTHTKELNLWEAAGTEPGGNWYQETGTGMGEALNIANQQGAYTLSDRGTYISQRSEIDLVILVQGPIEDGPEILANPYGIMAVNPGVHDNANYDLAMAYIGWITSPGTQDAISNYQVNGEQLFFPEAVSEDPNFQQYVPEGWSSDAGE | failed
MPIRVYTKVELALLYAPHLSENAALNNLSRWMRHNKLLMAALEEVGYYKYRHSFTPKEVRLIFRYMGEPGALEHHHHHH | not failed
MPITVHAYTSLDNEEIRTQLERLYDTSPEFGDGQDAIEQLEQNLAQYTTVYTAEFNTKIIGAIWCTGQGESKILEYIVVHPANRGRGIAERLVSEVCRMEEAKGVTMFEPGCGAIHRCLAHIGKLSV | failed
MPKAAWEPEYHRVFVDLCVEQKMLGNQPGTQHILKPFLQRTGARFTRNQLKNHWDTMIKQWKIWCRLVQCSDMQWDPQTNTFGANDQDWANYLHVNPEAGQYRLNPPSFLEKLELIFEDSNLDDEGTSGSKRKRIAKHRDEDNDNTGDEEDTQSASNFSSPQSKGYWSPSSHELFVDLLFQEALKGNRPDSHYPKETWKMILETINQNTGKSFTRPQLKNHWDCTRKSWKIWCQVIGAPVMKWDATSRTFGATDEDWKNYLKENHRAAPFRRKQLPHADKLATIFKGLIEPGKAYFRSYRRRVLDHHSESPQLHDPTPLSTLYTNEPVSGSEGGADEDDNDDDDEQPTPQHRRFNSVGFAESRLQDVEIVTPGCHRLKTELMKESPVSASVRQYEYTIGECIECLDSMEEVEQGSDLYLFALDLFVKKEYREIFLLLKNSSLRMSWLLRLRSGGLTIAA | failed
MPKANLEIIRSTYEGSASSNAKHLAEALSEKVEWTEAEGFPYGGTYIGVEAIMENVFSRLGSEWNDYKASVNMYHEVSGKDVIIAEGMYSGVYKDTGKSFEAEFVHVWQLENGKIVKFKQYVDSHLVREAMKS | not failed
MPKASLIIRERGLPKREVLLSPDRQWTIGRQLDCSIRLTDAYVSRLHAVINAFLFRGQPLYFIRDAHSRNGTFLNGFPLQHSTLLHHEDVIGVGTTLLVFYYPDMFREISLDECPLEHHHHHH | not failed
MPKFDVSKSDLERLIGRSFSIEEWEDLVLYAKCELDDVWEENGKVYFKLDSKDTNRPDLWSAEGVARQIKWALGIEKGLPKYEVKKSNVTVYVDEKLKDIRPYGVYAIVEGLRLDEDSLSQMIQLQEKIALTFGRRRREVAIGIFDFDKIKPPIYYKAAEKTEKFAPLGYKEEMTLEEILEKHEKGREYGHLIKDKQFYPLLIDSEGNVLSMPPIINSEFTGRVTTDTKNVFIDVTGWKLEKVMLALNVMVTALAERGGKIRSVRVVYKDFEIETPDLTPKEFEVELDYIRKLSGLELNDGEIKELLEKMMYEVEISRGRAKLKYPAFRDDIMHARDILEDVLIAYGYNNIEPEEPKLAVQGRGDPFKDFEDAIRDLMVGFGLQEVMTFNLTNKEVQFKKMNIPEEEIVEIANPISQRWSALRKWILPSLMEFLSNNTHEEYPQRIFEVGLATLIDESRETKTVSEPKLAVALAGTGYTFTNAKEILDALMRHLGFEYEIEEVEHGSFIPGRAGKIIVNGRDIGIIGEVHPQVLENWNIEVPVVAFEIFLRPLYRH | not failed
MPKFYCDYCDTYLTHDSPSVRKTHCSGRKHKENVKDYYQKWMEEQAQSLIDKTTAAFQQGK | not failed
MPKRKNTSIKDYKLKSGKKRYMFQIYLGTNSNGKPIITRRRGFKSYAEAEAVFNKMSQIKPDNFVKQKQIKVAELRELWFENYKTQVKESTANKNKQVFDNHVIPAFGNQYIDKITVAELQKWADRKAKQIVKYRDAINEFNALFEYGIRLNYVSENPLKRIIIPKKTSRPRRDTEHNVYTQDELNQFLEVAKDYGLVPYTYFKLLSATGLRKSEALALTWSDINLTAGTLSVNKTLAYGLNGKTIIQPPKSPKSKRILPISDGLKEVLIDYKRKQKIISKELFHTNKGTYLRISKPDQWLKSIYAKDHEEKAEYAKKYNLKEPQPDLRHITVHGFRHTFATLLIAETNVKPKTVQMLLGHENIQMTLDIYTHINKKNTEDAVNALKQLNI | failed
MPKRSKEDTEITIQKIMDAVVDQLLRLGYDKMSYTTLSQQTGVSRTGISHHFPKKTDFTAALDGRIFKMFIEHLEFEKGLDAFSQSWIKALEDSEFLAILRLLFHHIVTSESAHEFAANGIDRLYKMVESQFGSGGDKELEWLIGRSLIQMSK | not failed
MPKSMGMAVAVPVTLAVIAAGGAGVGAYMYNERNLALEELARQSELSGSIATLETEVAGLTSQVKAAEGQLGDLNGQLEAAKAELAEVQGQHDRLSSELEPMRAEIASFDSRKAEAEESTAKAIADFQAADARLKELTDREDNLRATVSKLAAEVQDLDRRMEGLRAESGALVAAAQSAARQRTDLQGMVETLAGLLATRSEELVQLERRIGEQDLKVPAAGPAPLAAAAGAASQAPDGAGAAEPAAKEAETAAPETDAAGQTASQAEGSEAGSQPAAEPEAAEADGGNGAAEEPEAGAQDEGADAAAEPAPTGASEDAPDDAAAEGSTAEAEAAPEASGSTAGASDDAASQGSTAASEEPEAAPPSEAPAKAEAPDLGAGTYGIGPLFATFSPDGSFTMRNVELDTSASGKWEVTDGLLTLSDPEGGSGSSSFPMLCQLVKEAEALKLAKAQTGSCPLAGMEIARR | failed
MPKWTPYKRHPGVYEYQTKKGKRFGVRRTYDDAMGERKEFSKSGFIHWQDADIEIKRFEAKLVSGEVSGSLANRMTIDQYYQQMAKRKMKMGIWRESTARANGNFYSKYLKPAFGKTPLQDVSRAKYQRFLDELSQSGLALTTVHTIDAVMKSIMNAAEFEDVIDKNRLRGMQINGKAPRNKDLEPHSFELWLNAAKTNLDKYEMALIITATLGLRRGEVMGLRNESIKISHDQINDADVAQISIDMQRNTNELNGGPLKTKSSYRTIWAFGKTVDHLKYAMITADNLRQRNNIQAEKHWLWLNNDGNPLHPTHLNRLMRRVSNRSGVEVYPHLLRHYFATQAIAANKPQIDVMHYLGHKNLQMTADYTRSTKAASLNVFNSIDKFL | failed
MPLAIIPWFELPSASLGPFTLQSFGVLSALGILAAVQLSARGAKQLGKDPQVILDFAVVGVLAGVVVGHLAHLFFYHPEELQDPLRIFKFWEGLSSMGGLAGGMIAAAVYFRRKRVRFTAYADAFALGVAPGWGIARVGCFTVHDHPGRLTDFFLAVRFPDGPRHDLGLYEAILLLSLGAVLWALHRRDVLRGRLLPLLALVYGIGRFLLDFLRATDVSYADARHLGLTFAQYFAVALVAYAVWGFARRPSDEERVRVSTGVGRR | failed
MPLAVLERDGSFLGVLTPHSIVEVLLERERRLLEDARKINAEIRREADKAIEQLDIKAHYDTVTGLPNRQLFCDRLLQALAAHERDGNPVVLLFLDVDNFKSINDSLGHLVGDRLLRATAERIRTAVRDGDTVARIGGDEFTILLNGAKDTLNGALVAQKILDGLAQPFVFGAQQIVISVSIGIAVSPADGETMEQLLRNADTAMYHAKSRGKNNYQFFSPELNVQAYRRQEIERNLRCALLQGELGLRYAPRVDLRSGRIVALEVCPFWLSSELGDVPPDDFIPVAEETGLIVQIGIWAFRTACAHAAVWRTQGLADRCLSFRLSQRELDDPQFGDRIMSLLDGCGLEPENLQFELSERMLMTHAAHTLAVLQELSNRGIRFSVGDFGTGNASLRRLRRFPIDELKIDLSSVRDIEPDSDDAAVITAMIAMAKSLRMDVVAVGVETPEHVAFLLERGCRHGQGRLIGARLPPERIAALLAGDAVDLFVALEHHHHHH | failed
MPLGSSAPPRMGGHTALAAALWPRRTDGFSAWLRMAVLIAFGSVLLALSAKVNLPLPLVPMTLQTLMVVLIGAAYGARLGAATVLAYLAEGAAGLPVFAGPVGGLAPLLGPTAGYLAGFVVAAVLVGWCADRGFDRSVAKLFAAMLAGHLAILTLGFAWLAFGLHLGLAKAWWVGVVPFLAGSLVKSALGAALLPAVRRIVDRQR | failed
MPLHRTPRTGPEPRTLALLAGAGLAAGAAAWAVSRSRENPVVFRPNDDAPDRVARHPEATMPTGRTVTINRPRSELFAFWRDFSNLPQFMESVEHVTVVGDVSRWTLAAPFGRKITLETRIVEEVPDRLIAWRSTDGSDVRAEGAVTFRDAPAGRGTEVEAVVAYVPAGGEAGRLIARLFRLAPAMQGRRELRRFKMLMEAGEIATSRNRKD | failed
MPLKSLKNRLNQHFDLSPRYGSVKKIMPNIVYADGFNPSVGDVVKIEKSDGSECVGMVVVAEKEQFGFTPFNFIEGARAGDKVLFLKEGLNFPVGRNLLGRVLNPLGQVIDNKGALDYERLAPVITTPIAPLKRGLIDEIFSVGVKSIDGLLTCGKGQKLGIFAGSGVGKSTLMGMITRGCLAPIKVIALIGERGREIPEFIEKNLKGDLSSCVLVVATSDDSPLMRKYGAFCAMSVAEYFKNQGLDVLFIMDSVTRFAMAQREIGLALGEPPTSKGYPPSALSLLPQLMERAGKEENKGSITAFFSVLVEGDDLSDPIADQTRSILDGHIVLSRELTDYGIYPPINILNSASRVAKDIISESQNLCARKFRRLYALLKENEMLIRIGSYQMGNDKELDEAIKKKALMEQFLAQDENALQPFETSFQQLEEILR | failed
MPLLQKRVIVSNKREKVINDRRSRQQTVTPAGSEMRYEASFRPENGGLEVVFRLDAPQYHALSVGDRGMLSYKGTAFVAFTPDPLEHHHHHH | not failed

Reference: a protein production outcome set (Wang et al. 2014)
